# Results published in patent US7070974B1, “Metalloproteases of the neprilysin family” (Universite de Montreal, priority 1999, dated 2006).
# Starred links: 1 amine or outer side, 2 acyl side, 3 side chain; linkers in the order of their positions; H or OH if unused. Non-standard residues stand in square brackets, D forms with d. No end group written: not given here. Tyr(3,5-3H) = [3H]c1cc(C[C@H](N[*:1])C(=O)[*:2])cc([3H])c1O[*:3]
# Key:
# Format in all cases: biochemical
# [1] = molecular target: T1, NL1 (Mus musculus, UniProt Q9JLI3); test: NL-1 enzymatic activity assay with (Tyrosyl-[3,5-3H])(D-Ala2)-Leu5-enkephalin as substrate; set-up: The soluble form of NL-1 was assayed for activity; made in house; host or cells: CHO cells (section 1, pcDNA3-RSV) and HEK 293 cells (section 2, pCDNA3/RSV)
# T1 sequence (Q9JLI3 63-765 limits assumed): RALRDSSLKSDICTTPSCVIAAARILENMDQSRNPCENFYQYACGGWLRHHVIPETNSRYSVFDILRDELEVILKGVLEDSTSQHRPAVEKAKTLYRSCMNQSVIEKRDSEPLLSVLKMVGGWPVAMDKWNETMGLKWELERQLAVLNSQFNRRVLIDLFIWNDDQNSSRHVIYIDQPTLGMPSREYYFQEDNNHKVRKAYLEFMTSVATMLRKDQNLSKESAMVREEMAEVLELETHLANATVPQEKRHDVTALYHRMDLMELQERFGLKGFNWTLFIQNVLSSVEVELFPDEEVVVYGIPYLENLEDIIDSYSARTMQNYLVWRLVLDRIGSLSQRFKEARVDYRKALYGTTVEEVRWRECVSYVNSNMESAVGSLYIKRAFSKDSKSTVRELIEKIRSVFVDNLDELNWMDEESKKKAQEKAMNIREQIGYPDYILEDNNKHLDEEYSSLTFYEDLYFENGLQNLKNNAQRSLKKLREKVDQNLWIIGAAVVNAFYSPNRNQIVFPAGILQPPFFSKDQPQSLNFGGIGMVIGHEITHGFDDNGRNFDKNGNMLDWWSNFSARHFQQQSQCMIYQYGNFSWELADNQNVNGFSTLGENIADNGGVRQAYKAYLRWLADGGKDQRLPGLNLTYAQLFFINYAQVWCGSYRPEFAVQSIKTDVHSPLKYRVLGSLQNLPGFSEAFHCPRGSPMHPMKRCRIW
# Method: (§1) Extracts of cellular proteins and culture media were assayed for enzymatic activity. Two tests were performed. The first used [^3H]-Tyr-(D)Ala2-Leu-enkephalin as substrate and was performed according to Lemay et al., (1989). The second used bradykinin as substrate and was performed as described by Raut et al. (1999).
# NL1 activity was monitored and compared to sNEP activity using (Tyrosyl-[3,5-^3H])(D-Ala2)-Leu5-enkephalin (50 Ci/mmol) (Research Products International Inc.), as already described (Dion 1995; Devault 1988). Km values were determined by the isotope-dilution method.
# [2] = molecular target: T2, soluble form of NL-3 (Homo sapiens, UniProt O95672); test: Soluble NL-3 activity assay with [3H]-Tyr-(D)Ala2-Leu-enkephalin as substrate; details: soluble NL-3 from the NL-1 amino-terminal fusion
# T2 construct: the ectodomain of NL-3 (from the third cysteine to the end) was spliced to NL-1 amino-terminal domain; mouse NL-1 amino-terminal domain (initiator methionine to the furin site) (N); made in house; host or cells: COS-1 and HEK 293 cells transfected with pRcCMV; spent culture medium
# T2 sequence (O95672 83-775 limits assumed): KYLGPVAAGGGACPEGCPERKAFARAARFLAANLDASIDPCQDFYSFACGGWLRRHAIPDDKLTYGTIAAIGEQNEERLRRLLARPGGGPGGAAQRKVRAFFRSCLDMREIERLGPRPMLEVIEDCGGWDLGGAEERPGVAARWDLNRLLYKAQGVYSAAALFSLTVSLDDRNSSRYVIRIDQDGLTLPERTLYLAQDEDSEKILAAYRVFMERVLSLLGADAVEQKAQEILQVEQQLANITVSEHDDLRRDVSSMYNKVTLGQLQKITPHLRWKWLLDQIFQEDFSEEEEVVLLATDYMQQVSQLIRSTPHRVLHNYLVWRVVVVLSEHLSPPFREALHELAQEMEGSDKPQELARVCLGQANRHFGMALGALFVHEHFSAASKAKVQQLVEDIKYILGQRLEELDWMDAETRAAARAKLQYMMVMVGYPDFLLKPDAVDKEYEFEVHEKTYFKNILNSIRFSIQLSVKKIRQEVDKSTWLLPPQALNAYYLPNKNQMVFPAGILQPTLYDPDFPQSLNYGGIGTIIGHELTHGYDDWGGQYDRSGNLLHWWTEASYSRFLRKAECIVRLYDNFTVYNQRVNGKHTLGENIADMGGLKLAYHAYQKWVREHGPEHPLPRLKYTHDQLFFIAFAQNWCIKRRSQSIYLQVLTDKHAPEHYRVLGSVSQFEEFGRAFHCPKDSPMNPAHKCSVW
# Method: as §1
# The observation that NL-1 ectodomain was secreted, possibly through cleavage of the transmembrane segment by furin, raised the possibility to promote secretion of exogenous proteins that could be spliced to NL-1 amino-terminal domain (from initiator methionine to the furin site). To test this hypothesis, the ectodomain of NL-3 (from the third cysteine to the end) was spliced to NL-1 amino-terminal domain using a PCR strategy and the recombinant DNA cloned in expression vector pRcCMV. The fusion protein was expressed by transfection of the vector in COS-1 and HEK 293 cells. The culture media of transfected cells was analyzed by immunoblotting using the mouse antiserum against NL-3.
# [3] = molecular target: T3, sNEP (engineered soluble form of NEP) (Oryctolagus cuniculus, UniProt P08049); test: sNEP enzymatic activity assay with (Tyrosyl-[3,5-3H])(D-Ala2)-Leu5-enkephalin as substrate; details: substrate of sNEP; isotope-dilution method
# T3 construct: Fusion of a cleavable signal peptide to the ectodomain of neutral endopeptidase; cleavable signal peptide of proopiomelanocortin (replaces cytosolic and transmembrane domains) (N, cleaved yes); made in house; host or cells: LLC-PK1 cells transfected with pRcCMV-sNEP; concentrated culture medium
# T3 sequence (P08049 52-750 limits assumed): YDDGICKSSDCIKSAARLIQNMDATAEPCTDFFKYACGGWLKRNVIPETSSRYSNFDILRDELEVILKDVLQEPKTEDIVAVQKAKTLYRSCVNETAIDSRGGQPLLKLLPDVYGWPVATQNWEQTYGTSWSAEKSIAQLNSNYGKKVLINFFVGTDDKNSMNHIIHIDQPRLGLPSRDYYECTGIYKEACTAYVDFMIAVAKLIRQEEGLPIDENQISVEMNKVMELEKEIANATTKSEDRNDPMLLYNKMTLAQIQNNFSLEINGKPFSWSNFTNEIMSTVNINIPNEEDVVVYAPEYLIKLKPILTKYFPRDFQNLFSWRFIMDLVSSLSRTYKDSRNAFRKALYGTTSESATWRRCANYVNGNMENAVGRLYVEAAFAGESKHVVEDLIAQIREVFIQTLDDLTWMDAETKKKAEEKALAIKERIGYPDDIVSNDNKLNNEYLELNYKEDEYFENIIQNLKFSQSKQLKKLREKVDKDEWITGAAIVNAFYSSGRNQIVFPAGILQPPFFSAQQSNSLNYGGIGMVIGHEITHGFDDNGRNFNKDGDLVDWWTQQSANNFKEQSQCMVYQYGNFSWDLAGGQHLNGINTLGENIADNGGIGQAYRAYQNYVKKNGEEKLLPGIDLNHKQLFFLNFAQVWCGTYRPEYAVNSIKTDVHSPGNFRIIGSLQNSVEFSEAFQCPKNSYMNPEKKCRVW
substance,measurement,setting,value
"(Tyrosyl-[3,5-^3H])(D-Ala2)-Leu5-enkephalin ([Tyr(3,5-3H)][dA]GFL) [D-Ala2-Leu5-enkephalin]",Km value of NL1 relative to NEP,[1]; fold lower for NL1 than NEP,4- to 5 fold
same,Km,"[1]; substrate of soluble NL-1, isotope-dilution method",18 µM
same,activity of soluble NL-3 on the substrate,[2],No activity
same,Km,[3],73 µM
